Laboratory results taken from patent US20240301385, “DNA MODIFYING ENZYMES AND ACTIVE FRAGMENTS AND VARIANTS THEREOF AND METHODS OF USE” (LIFEEDIT THERAPEUTICS, INC., published 2024).

Experiments:
[1] = biological target: T1, APG00868.1-L16-nAPG07433.1 (truncated deaminase) (synthetic); assay: cell_activity; HEK293FT; PAM SEQ 152; settings: tags: SV40 NLS, 3xFLAG N-term; nucleoplasmin NLS C-term
T1 chain: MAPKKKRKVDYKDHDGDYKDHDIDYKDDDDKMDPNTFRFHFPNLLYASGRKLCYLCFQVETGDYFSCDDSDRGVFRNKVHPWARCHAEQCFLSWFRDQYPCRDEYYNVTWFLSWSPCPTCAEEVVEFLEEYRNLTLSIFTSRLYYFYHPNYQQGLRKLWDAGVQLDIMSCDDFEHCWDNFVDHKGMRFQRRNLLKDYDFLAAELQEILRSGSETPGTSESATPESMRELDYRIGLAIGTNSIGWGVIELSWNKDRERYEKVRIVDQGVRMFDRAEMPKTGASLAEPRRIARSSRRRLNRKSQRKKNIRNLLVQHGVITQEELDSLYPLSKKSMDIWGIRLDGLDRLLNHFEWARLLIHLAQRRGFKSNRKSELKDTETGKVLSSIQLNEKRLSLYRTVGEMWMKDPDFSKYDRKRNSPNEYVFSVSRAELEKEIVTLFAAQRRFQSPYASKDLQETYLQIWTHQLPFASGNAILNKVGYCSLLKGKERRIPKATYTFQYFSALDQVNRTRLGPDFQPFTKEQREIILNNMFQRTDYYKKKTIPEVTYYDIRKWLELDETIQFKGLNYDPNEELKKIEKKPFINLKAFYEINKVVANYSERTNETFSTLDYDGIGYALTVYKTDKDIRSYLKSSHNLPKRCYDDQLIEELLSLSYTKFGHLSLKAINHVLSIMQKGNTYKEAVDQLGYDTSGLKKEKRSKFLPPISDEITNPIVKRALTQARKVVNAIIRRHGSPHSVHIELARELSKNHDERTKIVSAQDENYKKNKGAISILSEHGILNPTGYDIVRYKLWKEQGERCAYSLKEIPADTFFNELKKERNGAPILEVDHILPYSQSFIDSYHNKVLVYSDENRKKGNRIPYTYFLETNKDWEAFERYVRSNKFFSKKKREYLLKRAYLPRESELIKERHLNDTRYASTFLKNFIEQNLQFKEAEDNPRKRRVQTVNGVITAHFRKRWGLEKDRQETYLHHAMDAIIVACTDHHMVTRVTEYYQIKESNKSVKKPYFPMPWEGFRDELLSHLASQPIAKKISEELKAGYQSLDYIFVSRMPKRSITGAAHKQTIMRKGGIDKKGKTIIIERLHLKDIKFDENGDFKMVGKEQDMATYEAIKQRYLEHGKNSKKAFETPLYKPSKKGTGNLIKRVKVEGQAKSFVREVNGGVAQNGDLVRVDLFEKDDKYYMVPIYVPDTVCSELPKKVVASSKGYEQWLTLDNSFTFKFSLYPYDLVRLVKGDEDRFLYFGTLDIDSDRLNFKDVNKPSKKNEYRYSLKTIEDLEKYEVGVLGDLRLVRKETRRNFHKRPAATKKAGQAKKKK
Procedure, shortened: (§1)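 Editing read out by next-generation sequencing (MiSeq 2×250) of PCR amplicons spanning the target site, analysed for INDELs or % cytosine conversion per position (position 1 nearest PAM).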

[2] = biological target: T2, APG30129-L32-nAPG07433.1 (synthetic); assay: cell_activity; HEK293FT; PAM SEQ 152; settings: tags: SV40 NLS, 3xFLAG N-term; nucleoplasmin NLS C-term
T2 chain: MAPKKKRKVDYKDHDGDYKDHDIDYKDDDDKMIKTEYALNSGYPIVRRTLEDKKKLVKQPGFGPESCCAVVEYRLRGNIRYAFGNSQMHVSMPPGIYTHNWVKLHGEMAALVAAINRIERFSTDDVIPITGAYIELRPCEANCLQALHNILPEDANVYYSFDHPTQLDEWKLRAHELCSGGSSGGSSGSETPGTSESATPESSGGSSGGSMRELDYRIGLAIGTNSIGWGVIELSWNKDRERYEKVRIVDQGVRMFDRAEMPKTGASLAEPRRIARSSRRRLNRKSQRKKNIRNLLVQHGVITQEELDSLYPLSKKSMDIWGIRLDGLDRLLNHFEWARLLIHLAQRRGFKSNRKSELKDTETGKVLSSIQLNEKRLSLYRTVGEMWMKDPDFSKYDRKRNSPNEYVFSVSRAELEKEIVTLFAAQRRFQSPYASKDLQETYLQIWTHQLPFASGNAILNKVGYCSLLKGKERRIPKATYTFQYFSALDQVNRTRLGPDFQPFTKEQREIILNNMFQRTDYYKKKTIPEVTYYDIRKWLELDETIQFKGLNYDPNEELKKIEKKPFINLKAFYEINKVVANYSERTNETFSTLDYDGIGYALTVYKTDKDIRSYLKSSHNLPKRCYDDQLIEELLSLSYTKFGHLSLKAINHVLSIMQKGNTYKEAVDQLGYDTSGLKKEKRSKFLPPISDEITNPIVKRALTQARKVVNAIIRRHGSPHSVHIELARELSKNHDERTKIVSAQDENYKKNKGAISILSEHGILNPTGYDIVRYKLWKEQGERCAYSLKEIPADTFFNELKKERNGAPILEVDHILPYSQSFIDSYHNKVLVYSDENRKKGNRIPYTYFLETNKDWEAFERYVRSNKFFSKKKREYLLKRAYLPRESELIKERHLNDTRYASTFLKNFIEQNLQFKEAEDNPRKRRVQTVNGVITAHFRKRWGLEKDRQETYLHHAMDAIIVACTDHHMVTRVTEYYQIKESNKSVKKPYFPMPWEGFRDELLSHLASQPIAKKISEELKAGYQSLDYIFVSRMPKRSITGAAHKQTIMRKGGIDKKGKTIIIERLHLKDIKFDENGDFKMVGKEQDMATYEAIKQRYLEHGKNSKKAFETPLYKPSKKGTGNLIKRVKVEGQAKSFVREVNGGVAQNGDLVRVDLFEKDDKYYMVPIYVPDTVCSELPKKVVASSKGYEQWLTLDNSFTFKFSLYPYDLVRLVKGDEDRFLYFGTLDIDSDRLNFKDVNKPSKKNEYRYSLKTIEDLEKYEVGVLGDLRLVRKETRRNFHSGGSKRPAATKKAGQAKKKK
Procedure, shortened: as §1

B1: SGN000169 sgRNA ; SGN000169 target (ssRNA ; dsDNA)
RNA: CACAUCUCGAGCAAGACGUUGUCAUAGUUCCAUUAAAGCCAAAAGUGGCUUUGAUGUUUCUAUGAUAAGGGUUUCGACCCGUGGCGUCGGGGAUCGCCUGCCCAUUGAAAUGGGCUUCUCCCCAUUUAUU
DNA 1: CACATCTCGAGCAAGACGTT
DNA 2: AACGTCTTGCTCGAGATGTG
- activity [1]: 22.4 % mutated reads

B2: SGN001101 sgRNA ; SGN001101 target (ssRNA ; dsDNA)
RNA: AUAUUUUCUUUAAUGGUGCCAGGCAGUCAUAGUUCCAUUAAAGCCAAAAGUGGCUUUGAUGUUUCUAUGAUAAGGGUUUCGACCCGUGGCGUCGGGGAUCGCCUGCCCAUUGAAAUGGGCUUCUCCCCAU
DNA 1: ATATTTTCTTTAATGGTGCCAGGCA
DNA 2: TGCCTGGCACCATTAAAGAAAATAT
- activity [1]: 20.4 % mutated reads

B3: SGN000194 sgRNA ; SGN000194 target (ssRNA ; dsDNA)
RNA: GCCGCACAGCAUUCAGGUCGGUCAUAGUUCCAUUAAAGCCAAAAGUGGCUUUGAUGUUUCUAUGAUAAGGGUUUCGACCCGUGGCGUCGGGGAUCGCCUGCCCAUUGAAAUGGGCUUCUCCCCAUUUAUU
DNA 1: GCCGCACAGCATTCAGGTCG
DNA 2: CGACCTGAATGCTGTGCGGC
- activity [2]: 5.92 % mutated reads

B4: SGN000930 sgRNA ; SGN000930 target (ssRNA ; dsDNA)
RNA: GAACAACUCAAAUGGAAAUGAAUAUGUCAUAGUUCCAUGAAAGCCAAAAGUGGCUUUGAUGUUUCUAUGAUAAGGGUUUCGGCCCGUGGCGUCGGGGAUCGCCUGCCCAUUCCGAUGGGCUUCUCCCCAUUUAUU
DNA 1: GAACAACTCAAATGGAAATGAATAT
DNA 2: ATATTCATTTCCATTTGAGTTGTTC
- activity [2]: 3.47 % mutated reads

B5: SGN000929 sgRNA ; SGN000929 target (ssRNA ; dsDNA)
RNA: AUCUGGAGGGAACUUACAGCAUAUGGUCAUAGUUCCAUGAAAGCCAAAAGUGGCUUUGAUGUUUCUAUGAUAAGGGUUUCGGCCCGUGGCGUCGGGGAUCGCCUGCCCAUUCCGAUGGGCUUCUCCCCAUUUAUU
DNA 1: ATCTGGAGGGAACTTACAGCATATG
DNA 2: CATATGCTGTAAGTTCCCTCCAGAT
- activity [1]: 14.6 % mutated reads
